± gives the uncertainty stated by the source.
B1: Syntaxin-binding protein 4, residues 493 to 538; numbered along this chain, Q6ZWJ1 (parent)
chain: LDMDCLPYGWEEAYTADGIKYFINHVTQTTSWIHPVMSVLNLSRSE

Variants of: B1
Experiment: abundance fitness (aPCA) (normalised: wild type 0, dead -1); higher = more abundant; growth selection in yeast, the domain comes from the species named
Details: Homo sapiens

Row | Variant | abundance fitness
1 | T30P | -0.857 ± 0.17
2 | T30K | -0.692 ± 0.15
3 | T30F | -0.998 ± 0.26
4 | T30D | -0.859 ± 0.14
5 | T30N | -0.727 ± 0.25
6 | T30I | -0.936 ± 0.16
7 | T30C | -0.142 ± 0.14
8 | T30R | -0.719 ± 0.093
9 | T30L | -0.512 ± 0.096
10 | T30V | -0.691 ± 0.096
11 | T30S | 0.363 ± 0.086
12 | A16T | -0.408 ± 0.088
13 | A16Q | -0.182 ± 0.12
14 | A16D | -0.029 ± 0.1
15 | A16C | -0.555 ± 0.096
16 | A16M | -0.5 ± 0.12
17 | A16S | -0.011 ± 0.076
18 | A16H | -0.342 ± 0.091
19 | A16P | -0.349 ± 0.096
20 | A16Y | -0.606 ± 0.1
21 | A16N | -0.283 ± 0.088

Row | Variant | abundance fitness
22 | A16V | -0.57 ± 0.095
23 | A16K | 0.211 ± 0.098
24 | A16I | -0.716 ± 0.09
25 | A16R | -0.66 ± 0.09
26 | A16W | -0.901 ± 0.17
27 | A16G | -0.445 ± 0.095
28 | A16E | -0.118 ± 0.15
29 | A16F | -0.781 ± 0.1
30 | A16L | -0.649 ± 0.09
31 | Q28H | -0.204 ± 0.13
32 | Q28N | 0.159 ± 0.12
33 | Q28E | -0.525 ± 0.12
34 | Q28D | -0.467 ± 0.13
35 | Q28V | -0.789 ± 0.098
36 | Q28R | -0.316 ± 0.086
37 | Q28P | -0.793 ± 0.14
38 | Q28S | -0.312 ± 0.091
39 | Q28C | -0.573 ± 0.13
40 | Q28T | -0.81 ± 0.13
41 | Q28A | -0.509 ± 0.11
42 | Q28W | -0.695 ± 0.13

Row | Variant | abundance fitness
43 | Q28M | 0.031 ± 0.14
44 | Q28G | 0.294 ± 0.075
45 | Q28K | -0.027 ± 0.13
46 | Q28F | -0.422 ± 0.14
47 | Q28I | -0.664 ± 0.16
48 | Q28L | -1 ± 0.13
49 | T27W | -0.179 ± 0.1
50 | T27G | -0.248 ± 0.079
51 | T27I | -0.814 ± 0.25
52 | T27V | -0.872 ± 0.1
53 | T27Q | -0.344 ± 0.14
54 | T27Y | 0.394 ± 0.15
55 | T27S | -0.348 ± 0.1
56 | T27L | 0.644 ± 0.091
57 | T27F | 0.071 ± 0.25
58 | T27N | -0.407 ± 0.2
59 | T27P | -0.772 ± 0.14
60 | T27K | -0.045 ± 0.13
61 | T27M | 0.168 ± 0.1
62 | T27R | -0.234 ± 0.081
63 | T27D | -0.127 ± 0.16

Row | Variant | abundance fitness
64 | T27H | 0.176 ± 0.16
65 | T27E | -0.672 ± 0.13
66 | T27A | -0.513 ± 0.096
67 | I19G | -0.062 ± 0.073
68 | I19D | 0.771 ± 0.1
69 | I19P | -0.761 ± 0.14
70 | I19V | 0.054 ± 0.076
71 | I19E | 1.09 ± 0.082
72 | I19Q | 0.7 ± 0.093
73 | I19F | -0.352 ± 0.12
74 | I19Y | -0.034 ± 0.16
75 | I19W | -0.566 ± 0.1
76 | I19M | 0.313 ± 0.091
77 | I19A | 0.708 ± 0.078
78 | I19K | 0.791 ± 0.12
79 | I19N | 0.65 ± 0.12
80 | I19T | 0.234 ± 0.094
81 | I19R | 0.428 ± 0.074
82 | I19S | 0.634 ± 0.083
83 | I19H | 0.293 ± 0.11
84 | I19C | 0.348 ± 0.1
